In assay [1] the target is antigen of the ScFv (Example 1). In words: spotted films, Alexa647-labelled pure antigen, fluorescence; reference ScFv alone.
Assay [2] concerns the target antigen of scFv1 (Example 6). Kind of assay: microarray of spotted films, 10 nM biotinylated antigen, Alexa-647-labeled streptavidin, spot intensity; reference scFv1 control.

A value given as a limit tells only on which side of the number the result lay.

B1: His6Rep4CTScFv (scFv)
chain: MHHHHHHGQGGYGGLGQGGYGQGAGSSAAAAAAAAAAAAGGQGGQGQGGYGQGSGGSAAAAAAAAAAAAAAAGRGQGGYGQGSGGNAAAAAAAAAAAAAAAGQGGQGGYGRQSQGAGSAAAAAAAAAAAAAAGSGQGGYGGQGQGGYGQSSASASAAASAASTVANSVSRLSSPSAVSRVSSAVSSLVSNGQVNMAALPNIISNISSSVSASAPGASGCEVIVQALLEVITALVQIVSSSSVGYINPSAVNQITNVVANAMAQVMGGNSEVQLLESGGGLVQPGGSLRLSCAASGFTFSSYEMNWVRQAPGKGLEWVSGISGSGGFTYYADSVKGRFTISRDNSKNTLYLQMNSLRAEDTAMYYCAREGYQDAFDIWGQGTLVTVSSGGGGSGGGGSGGGGSQSVLTQPPSASGTPGQRVTISCTGSSSNIGAGYDVHWYQQLPGTAPKLLIYSNNQRPSGVPDRFSGSKSGTSASLAISGLRSEDEADYYCAAWDDSLSGPPCVFGGGTKLTVLGEQKLISEEDLSGSAAA
B1 showed a fold more antigen bound compared to ScFv alone in assay [1] of more than 10 times.

B2: His6ScFvRep4CT (scFv)
chain: MGSSGHHHHHHMEVQLLESGGGLVQPGGSLRLSCAASGFTFSSYEMNWVRQAPGKGLEWVSGISGSGGFTYYADSVKGRFTISRDNSKNTLYLQMNSLRAEDTAMYYCAREGYQDAFDIWGQGTLVTVSSGGGGSGGGGSGGGGSQSVLTQPPSASGTPGQRVTISCTGSSSNIGAGYDVHWYQQLPGTAPKLLIYSNNQRPSGVPDRFSGSKSGTSASLAISGLRSEDEADYYCAAWDDSLSGPPCVFGGGTKLTVLGEQKLISEEDLSGSAAAGNSGQGGYGGLGQGGYGQGAGSSAAAAAAAAAAAAGGQGGQGQGGYGQGSGGSAAAAAAAAAAAAAAAGRGQGGYGQGSGGNAAAAAAAAAAAAAAAGQGGQGGYGRQSQGAGSAAAAAAAAAAAAAAGSGQGGYGGQGQGGYGQSSASASAAASAASTVANSVSRLSSPSAVSRVSSAVSSLVSNGQVNMAALPNIISNISSSVSASAPGASGCEVIVQALLEVITALVQIVSSSSVGYINPSAVNQITNVVANAMAQVMG
As for B2, the fold more antigen bound compared to ScFv alone in assay [1] was determined as 10 times.

B3: His6-scFv1-NTCT (scFv)
chain: MGSSGHHHHHHMEVQLLESGGGLVQPGGSLRLSCAASGFTFSSYEMNWVRQAPGKGLEWVSGISGSGGFTYYADSVKGRFTISRDNSKNTLYLQMNSLRAEDTAMYYCAREGYQDAFDIWGQGTLVTVSSGGGGSGGGGSGGGGSQSVLTQPPSASGTPGQRVTISCTGSSSNIGAGYDVHWYQQLPGTAPKLLIYSNNQRPSGVPDRFSGSKSGTSASLAISGLRSEDEADYYCAAWDDSLSGPPWVFGGGTKLTVLGEQKLISEEDLSGSAAAGNSSHTTPWTNPGLAENFMNSFMQGLSSMPGFTASQLDDMSTIAQSMVQSIQSLAAQGRTSPNKLQALNMAFASSMAEIAASEEGGGSLSTKTSSIASAMSNAFLQTTGVVNQPFINEITQLVSMFAQAGMNDVSAGNSGIQGYGQSSASASAAASAASTVANSVSRLSSPSAVSRVSSAVSSLVSNGQVNMAALPNIISNISSSVSASAPGASGCEVIVQALLEVITALVQIVSSSSVGYINPSAVNQITNVVANAMAQVMG
In the case of B3, in assay [2], the fold increase of antigen recognition compared to the scFv1 control alone was determined as 25 times.

Source of the values: patent US20150119554A1.
